From the nanobody polyreactivity screen of Harvey et al. (2022)

Assay: yeast display, Sf9 membrane polyspecificity reagent, FACS + sequencing; frameworks hold sequencing errors
Summary of the method: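 Sorting gates, low and high (top ~1%), were placed on anti-HA fluorescence to track expression and on streptavidin fluorescence to track reagent binding. A clone's polyreactivity label is taken from the gate it came out of. The reagent was 10% biotinylated, detergent-solubilized Sf9 membrane, applied for 1 hour at 4 °C to galactose-induced yeast display cells.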

For “QVQLVESGGGLVHAGGSLSLSCAASGIIFPWYTMGWYRKAPGKERELVAAISSGGRTNYADSVKGRFTISRDNATNTVFLQMNSLKQEDTAVYYCGAKYYRDRDWGQGTQVTVSS”, which “polyreactivity (PSR sort gate)” value is on record?
Its value is “high polyreactivity”.

For “QVQLVESGGGLVHAGGSLSLSCAASGSIFPTNVMGWYRQAPGKERELVAAISANDGSTYYADSVKGRFTISRDNAKNTVYLQMNSLKPEDTAVYYCNQEGYTYRFTWYDYWGQGTQVTVSS”, which “polyreactivity (PSR sort gate)” value is on record?
The value was “low polyreactivity”.

Which “polyreactivity (PSR sort gate)” value does the source give for “QVQLVESGGGLVHAGGTLRLSCAASGSIFARYAMGWYRQAPVKERELVAAISRNGGSTYYADSVKGRFTISRDNAKNTVYLQMNSLNPEDTAVYYCAASYYVLYTREYDYWGQGSQVTVSS” here?
Its value is “low polyreactivity”.

For “QVQLVESGGGLVHAVGSLRLSCAASGRTFISYAMGWYRQAPGKERELVAAISKYGGRTYYADSVKGRFTISRDNAKNTVYLQKISLKPEDTAVYYCAAVKTYLDYSSTSYDYWGQGTQVTVSS”, which “polyreactivity (PSR sort gate)” value is on record?
Its value is “high polyreactivity”.

For “QVQLVESGGGLVHDGRSLRLSCSASRRTYRLYAMGLYRQAPGQERELVAAITRGGRTNYADSVMGRFTISRDNAKNTVYLQMNSLKPEDTAVYYCADRYVERHTDYYYWGQGSQVTVSS”, which “polyreactivity (PSR sort gate)” value is on record?
The value was “low polyreactivity”.

For “QVQLVESGGGLVHSGGSLRLSCAASGSIFRRNAMGWYIQAPGKERELVAAISASGGRTYADSVKGRFTISRDNAKNTVYLQMNSLKPEDTAVYYCAVRSYWRVDYWGQGTQVTVSS”, which “polyreactivity (PSR sort gate)” value is on record?
Its value is “high polyreactivity”.

For “QVQLVESGGGLVKAGCSLRLRCAASGGTFSYYAMGLYRQAPGKERELVAAISRSSSRTYYADSVKGRFTISRDNAKNTVFLQMNSLKPEDTAVYYCAADRVSYSGRTPKGQRYDYWGQGTQVTVSS”, which “polyreactivity (PSR sort gate)” value is on record?
Its value is “high polyreactivity”.

For “QVQLVESGGGLVKAGGRLRLSCAASGSIFKKYAMGWYRQAPGKERELVAAITSGRSTYYADSVKGRFTISRDNAKKTVYLQMNSLKPEDTAVYYCANYRKGSLGSWGQGTQGTVSS”, which “polyreactivity (PSR sort gate)” value is on record?
The value was “high polyreactivity”.

Which “polyreactivity (PSR sort gate)” value does the source give for “QVQLVESGGGLVKAGGSIRLSCAASGSIFYRNTMGWYRQAPRKERQLVAAISKTGGSTYYSDSVKGRFTISRDNAKNTVYVQMNSLKPEDTAVYYCNRAPYALRVLCTGIISGHDYWGQGTQVTVSS” here?
The value was “high polyreactivity”.

Which “polyreactivity (PSR sort gate)” value does the source give for “QVQLVESGGGLVKAGGSLRISCAASGRTFGLYAMGWYRQAPGKERELVAAISWGGGRTYYADSVKGRFTISRDNAKNTVYLQMNSLNPEETAVYYCNAVYSPRYYVGGYDYWGQGTLVTVSS” here?
Its value is “high polyreactivity”.

Which “polyreactivity (PSR sort gate)” value does the source give for “QVQLVESGGGLVKAGGSLRLSCAASGFIFSLYAMGWYRQAPGKERELVASINRRGTSTFYADSVKGRFTISRDNAKNTVYLQMNSLKPEDTAVYYCNAYPGAAIRSTGRYDYWGQGTQVTVSS” here?
The value was “low polyreactivity”.

With “QVQLVESGGGLVKAGGSLRLSCAASGFIFYIYAMGWYRQAPGKERELVAAITSGGSTYYADSVKGRFTISRDNAKNTVYLQMNSLKPEDTAVYYCAAESYYGYDYWGQGTQVTVSS” as the sequence, how does the “polyreactivity (PSR sort gate)” value read?
The value was “low polyreactivity”.

For “QVQLVESGGGLVKAGGSLRLSCAASGFTFNKYAMGWYRQAPGKERESVAAISSSGGSTRYADSVKGRFTISRDNAKNTVYLQMNSLKPADTAVYYCAVYVTPDSGWWLYDYWGQGTHVTVSS”, which “polyreactivity (PSR sort gate)” value is on record?
The value was “high polyreactivity”.

Which “polyreactivity (PSR sort gate)” value does the source give for “QVQLVESGGGLVKAGGSLRLSCAASGFTFYTYTMGWYRQAPGKERELVAVISRSGGSTYYADSVKGRFTISRDNAKNTVYLQMNSLKPEDTAVYYCNAGYWRFIDSYDYWGQGTQVTVSS” here?
The value was “high polyreactivity”.

For “QVQLVESGGGLVKAGGSLRLSCAASGGIFYRNSMGWYRQAPGKERELVAAISWRGGSTYYADSVKGRFTISRDNAKNTVYLQMNSLKPEDTAVYYCAARSVATYRYDYWGQGTQVTVSS”, which “polyreactivity (PSR sort gate)” value is on record?
Its value is “high polyreactivity”.

With “QVQLVESGGGLVKAGGSLRLSCAASGIPFTFNAMGWYRQAPGKERELVAAITWSGGSTFYADSVKARFTISRDNAKITVYLQMNSLKQEDTAVYYCARETELYVRWLDYWGQGTQGTVSS” as the sequence, how does the “polyreactivity (PSR sort gate)” value read?
The value was “low polyreactivity”.

Which “polyreactivity (PSR sort gate)” value does the source give for “QVQLVESGGGLVKAGGSLRLSCAASGITFYEYAMGWYRQAPGKERELVAAITTGGTTNYADSVKGRFTISRDNAKNTVYLQMNSLKPEDTAVYYCAKDLDSGGRGYYWGQGTQVTVSS” here?
The value was “low polyreactivity”.

With “QVQLVESGGGLVKAGGSLRLSCAASGLIFAYYDMGWYRQAPGKERELVASITGSGGDTYYADSVKGRFTISRDNAKNTVYLQMNSLKPEDTAVYYCNAYYGAAFTYWDDYWGQGTQVTVSS” as the sequence, how does the “polyreactivity (PSR sort gate)” value read?
The value was “low polyreactivity”.

For “QVQLVESGGGLVKAGGSLRLSCAASGLTFRNNAMGWYRQAPGIERELVASINSGRSTNYADSVKGRFTISRDNAKNTVYLQMNSLKREDTAVYVCATRYYWYTRDSYDYWGQGTQVTVSS”, which “polyreactivity (PSR sort gate)” value is on record?
The value was “low polyreactivity”.

For “QVQLVESGGGLVKAGGSLRLSCAASGLTFTRYTMGWYRQAPGKERELVAAITSSGGSTYYADSVKGRFTISRDNAKNTVYLQRNSVKPEDTAVYYCAAPYPGTRGDGYWGLGTQVTVSS”, which “polyreactivity (PSR sort gate)” value is on record?
The value was “high polyreactivity”.

For “QVQLVESGGGLVKAGGSLRLSCAASGRIFKIYAMGWYRQAPGKERELVAAISGRGGSTYYADSVKGRFTISRDNAKNTVYLQLNSLKPEDTAVYYCAAVGYGFSAYSTYDYWGQGTQVTVSS”, which “polyreactivity (PSR sort gate)” value is on record?
The value was “high polyreactivity”.

For “QVQLVESGGGLVKAGGSLRLSCAASGRIFYLNAMGWYRQAPGKERELVAGIRKRGGSTYYADSVKGRFTISRDNAKNTVYLQMNSLKPEDTAVYYSAGQPALTYRFYYWGQGTQVTVSS”, which “polyreactivity (PSR sort gate)” value is on record?
The value was “high polyreactivity”.

Which “polyreactivity (PSR sort gate)” value does the source give for “QVQLVESGGGLVKAGGSLRLSCAASGRNFWFNAMGWYRQAPGKERELVAAIRNRGGSTYYADSVKGRFTISRDNAKNTVYLQMNSLKPEDTAVYYCARAPEGTGGKYGYWGQGTQVTVSS” here?
Its value is “high polyreactivity”.

For “QVQLVESGGGLVKAGGSLRLSCAASGRTFGYYAMGWYRQSPGKERELVADIRQSGGRTYYADSVKGRFRISRDNAKNTVYLQMNSLKPVDTAVYYCAARRSYLAYTYRRSYPMDSWGQGTQVTVSS”, which “polyreactivity (PSR sort gate)” value is on record?
Its value is “high polyreactivity”.

Which “polyreactivity (PSR sort gate)” value does the source give for “QVQLVESGGGLVKAGGSLRLSCAASGRTFVYYAMGWYRQAPGKERELVAAISGSGGSTYYADSVKGRFTISRDNAKNTVYLQMNSLKPEDTAVYYCAAGPRGRYRYGYWGQGTQVTVSS” here?
Its value is “high polyreactivity”.

Which “polyreactivity (PSR sort gate)” value does the source give for “QVQLVESGGGLVKAGGSLRLSCAASGSIFDFYVMGWYRQAPGKERELVAAISSGGSTYYADSVKGRFTISRDNAKNTVYIKMNSLKPEDTAVYYCAAYPEYVSGAWYDYWGQGTQVTVSS” here?
Its value is “low polyreactivity”.

For “QVQLVESGGGLVKAGGSLRLSCAASGSIFLYYSMGWYRQAPGKERELVAAITGGGCTNYADSEKGRFTISRDHAKNNVYLLMNSLKPEDTSVYYWAADASGQFPYSYYNYDYDYWGQGTQVSVSS”, which “polyreactivity (PSR sort gate)” value is on record?
Its value is “low polyreactivity”.

For “QVQLVESGGGLVKAGGSLRLSCAASGSILGAYNMGWYRQAPGKERELVSAITRRGGSTYYADSVKGRFTISRDNAKNTVYLQMNSLNPEDTAVYYCNAEYGFWYDYLVVPYDYWGQGTQVTVSS”, which “polyreactivity (PSR sort gate)” value is on record?
Its value is “low polyreactivity”.

Which “polyreactivity (PSR sort gate)” value does the source give for “QVQLVESGGGLVKAGGSLRLSCAASGSTFDSYAMGWYRQPPGKERELVASITSNDGSTSYADSVKGRFTISRDNAKNTVYLQMNSLKPEDTAVYYCAASSLYSDYGHRNLADGPYDYWGQGTQVTVSS” here?
Its value is “low polyreactivity”.

With “QVQLVESGGGLVKAGGSLRLSCAASGSTFYSYVMGWYRQAPGKERELFAAISRRGGSTYYADSVKWRFTISSDNAKNTVYLQMNSLKPEDTAVYYCAASAPVAGYKYRYDYWGQGTQVTVSS” as the sequence, how does the “polyreactivity (PSR sort gate)” value read?
The value was “high polyreactivity”.
